# Source: PMC11869757 (Drug Design, Development and Therapy, 2025)
# T1: CD122/IL-2Rβ with a His-tag (Sino Biological, 10696-H08B) (human, UniProt P14784)
# T1 sequence: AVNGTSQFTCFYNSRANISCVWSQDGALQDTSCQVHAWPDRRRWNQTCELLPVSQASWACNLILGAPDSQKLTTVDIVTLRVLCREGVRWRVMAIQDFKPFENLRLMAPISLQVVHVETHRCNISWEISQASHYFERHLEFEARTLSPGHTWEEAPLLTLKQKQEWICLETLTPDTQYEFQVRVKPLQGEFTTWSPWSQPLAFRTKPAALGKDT
# B1: SHR-1916, PEGylated interleukin-2 analogue (IL-2 N26Q/N29S/F42A/N71Q/L72G/C125A with a 20 kDa PEG at the N-terminus) (ligand)
# chain: APTSSSTKKTQLQLEHLLLDLQMILQGISNYKNPKLTRMLTAKFYMPKKATELKHLQCLEEELKPLEEVLQGAQSKNFHLRPRDLISNINVIVLELKGSETTFMCEYADETATIVEFLNRWITFAQSIISTLT
# modifications: 20 kDa PEG on the N-terminal amine group
# Molecular target: T1, CD122/IL-2Rβ with a His-tag (Sino …)
# Assay: SPR
binder,measurement,value
B1,Kd,1710 nM
